In PMC2112911:
Several values for one entry are separate records, joined by “and”; a condition that tells them apart may be missing. Identical values can stand only once. Like-named read-outs stand apart in the source and are kept apart here.

Assays:
[1] = target: Acanthamoeba myosin-II, 2.6 heavy chain phosphates per molecule (Acanthamoeba); experiment: sedimentation
[2] = target: Acanthamoeba myosin-II, 2.6 heavy chain phosphates per molecule (Acanthamoeba); experiment: sedimentation; remark: listed apart in the source
[3] = target: Acanthamoeba myosin-II, 2.6 heavy chain phosphates per molecule (Acanthamoeba); experiment: sedimentation; remark: listed apart in the source
[4] = target: Acanthamoeba myosin-II, 2.6 heavy chain phosphates per molecule (Acanthamoeba); experiment: sedimentation; remark: listed apart in the source
[5] = target: Acanthamoeba myosin-II, dephosphorylated, 0.8 heavy chain phosphates per molecule (Acanthamoeba); experiment: sedimentation
[6] = target: Acanthamoeba myosin-II (Acanthamoeba); experiment: electron microscopy
[7] = target: Acanthamoeba myosin-II (Acanthamoeba); experiment: electron microscopy; remark: listed apart in the source
[8] = target: Acanthamoeba myosin-II, 4.9 heavy chain phosphates per molecule (Acanthamoeba); experiment: sedimentation

In the case of “Acanthamoeba myosin-II, 2.6 heavy chain phosphates per molecule (complex)”, the critical concentration [1] is reported as 14 µg/mL and 18 µg/mL and 15 µg/mL, the critical concentration [2] is reported as 20 µg/mL and 15 µg/mL and the critical concentration [3] is reported as 26 µg/mL. For the same substance, the critical concentration [4] was 24 µg/mL and 32 µg/mL.
With “Acanthamoeba myosin-II, dephosphorylated, 0.8 heavy chain phosphates per molecule (complex)” the critical concentration [5] was 18 µg/mL.
Acanthamoeba myosin-II (complex) was tested, and the stoichiometry N [6] was > 35 and the stoichiometry N [7] was 16 and > 12.
For “Acanthamoeba myosin-II, 4.9 heavy chain phosphates per molecule (complex)”, the critical concentration [8] was < 5 µg/mL.
